Earlier results on 1 substance are cited in publication PMC8604983, “A glucagon analogue decreases body weight in mice via signalling in the liver” (Scientific Reports, 2021).

For the series the following is noted: in rodents. The protocol:
Native glucagon has a half-life of approximately 2 min in rodents. To study the effects of sustained GCGR activation, we developed a glucagon analogue (GCG104) through modification of OXM with the aim of reducing its GLP-1R activity and decreasing its rate of clearance. Select amino acid substitutions were made and a C18 lipidated tail was added (Fig. 1a).

For the substance glucagon [Native glucagon], the half-life result is recorded as “approximately 2 min”.
